Source: publication PMC10776994, “The SDS22:PP1:I3 complex: SDS22 binding to PP1 loosens the active site metal to prime metal exchange” (The Journal of Biological Chemistry, 2023)

Key:
Conditions in all cases: both partners purified
[1] = molecular target: T1, SDS22_(56-360):PP1α_(7-330) complex (UniProt Q15435 56-360; P62136 7-330); assay: SPR; as a3, but SDS22_(56-360):PP1α_(7-330) treated with 3 mM EDTA beforehand and dialysed to extract the M2 metal (metal-free PP1); one-state fit
T1 construct: SDS22 (PPP1R7), residues 56-360; Protein phosphatase 1 alpha catalytic subunit (PP1α), residues 7-330; PP1 in this complex lacks the M1 metal; The same complex treated with EDTA (M2 metal extracted) is kept as this molecule and told apart by assay a4; the His6 tag of SDS22 was cleaved, so it is probably His6-PP1; also called SDS22:PP1; SDS22:PP1_(M2-metal-free) / metal-free …

[2] = molecular target: T2, PP1α_(7-330) R96A (UniProt P62136 7-330, R96A); assay: SPR; His6-PP1 constructs or SDS22_(56-360):PP1α_(7-330) captured on a Ni-NTA chip (NiHC200M), I3 and variants injected; 25 °C; 20 mM Tris pH 8.0, 500 mM NaCl, 0.5 mM TCEP, 0.05% Tween-20; one-to-one one-state or two-state fit
T2 construct: Protein phosphatase 1 alpha catalytic subunit (PP1α), residues 7-330; also called PP1_(R96A); PP1_(7-330) R96A

[3] = molecular target: T3, PP1α_(7-330) R96A/H66K (UniProt P62136 7-330, R96A | H66K); assay: as above
T3 construct: Protein phosphatase 1 alpha catalytic subunit (PP1α), residues 7-330; also called PP1_(7-330) R96A/H66K

[4] = molecular target: T4, PP1α_(7-330) Y134A (UniProt P62136 7-330, Y134A); assay: as above
T4 construct: Protein phosphatase 1 alpha catalytic subunit (PP1α), residues 7-330; also called PP1_(Y134A); PP1_(7-330) Y134A

[5] = molecular target: T5, PP1α_(7-330) Y134A/H66K (UniProt P62136 7-330, Y134A | H66K); assay: as above
T5 construct: Protein phosphatase 1 alpha catalytic subunit (PP1α), residues 7-330; also called PP1_(7-330) Y134A/H66K

[6] = molecular target: T1, SDS22_(56-360):PP1α_(7-330) complex; assay: as above

T1 sequence (Q15435 56-360, chain 1 of 2): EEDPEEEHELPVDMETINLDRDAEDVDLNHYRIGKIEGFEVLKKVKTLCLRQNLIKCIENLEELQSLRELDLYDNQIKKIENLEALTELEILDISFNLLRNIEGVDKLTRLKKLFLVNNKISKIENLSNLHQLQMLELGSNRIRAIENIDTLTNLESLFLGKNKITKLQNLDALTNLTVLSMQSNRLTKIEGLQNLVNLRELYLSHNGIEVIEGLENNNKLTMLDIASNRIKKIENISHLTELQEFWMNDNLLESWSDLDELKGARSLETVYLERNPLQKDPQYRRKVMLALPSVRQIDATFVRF
T1 sequence (P62136 7-330, chain 2 of 2): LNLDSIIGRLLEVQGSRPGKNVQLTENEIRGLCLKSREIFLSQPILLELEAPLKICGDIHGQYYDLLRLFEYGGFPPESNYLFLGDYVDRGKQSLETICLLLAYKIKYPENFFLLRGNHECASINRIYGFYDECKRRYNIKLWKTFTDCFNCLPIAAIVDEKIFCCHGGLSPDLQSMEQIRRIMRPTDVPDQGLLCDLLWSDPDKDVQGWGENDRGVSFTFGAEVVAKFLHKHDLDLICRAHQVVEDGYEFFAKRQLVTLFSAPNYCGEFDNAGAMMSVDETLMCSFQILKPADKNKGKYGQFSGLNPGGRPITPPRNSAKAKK
T5 sequence (P62136 7-330 H66K/Y134A): as the sequence (P62136 7-330, chain 2 of 2) above, with H60K, Y128A counted along it
T4 sequence (P62136 7-330 Y134A): as the sequence (P62136 7-330, chain 2 of 2) above, with Y128A counted along it
T2 sequence (P62136 7-330 R96A): as the sequence (P62136 7-330, chain 2 of 2) above, with R90A counted along it
T3 sequence (P62136 7-330 H66K/R96A): as the sequence (P62136 7-330, chain 2 of 2) above, with H60K, R90A counted along it

Binder | Kd [1] [nM] | Kd [2] [nM] | Kd [3] [nM] | Kd [4] [nM] | Kd [5] [nM] | Kd [6] [nM]
SLTIKLRKRKPEKKVEWTSDTVDNEHMGRRSSKCCCIYEKPR (domain or fragment, human, UniProt O60927 27-68, looked up, source: E. coli BL21 (DE3), purified (Ni-NTA, TEV, heat 95 °C, SEC); not shown: His6, N-terminal, cleaved; MBP, N-terminal, cleaved) [I3_(27-68)] | 605 ± 32 | 12 ± 1 | 7 ± 1 | 9 ± 2 | 12 ± 3 | 116 ± 12
SLTIKLRKRKPEKKVEWTSDTVDNEHMGRRSSKSSSIYEKPR (domain or fragment, human, UniProt O60927 27-68, looked up, also called I3_(27-68) SSS; SSS: I3_(27-68) CCC→SSS; source: E. coli BL21 (DE3), purified (Ni-NTA, TEV, heat 95 °C, SEC); not shown: His6, N-terminal, cleaved; MBP, N-terminal, cleaved) [I3_(27-68) C60S/C61S/C62S] | – | – | – | – | – | 429 ± 30
SLTIKLRKRKPEKKVEWTSDTVDNEHMGRRSSK (domain or fragment, human, UniProt O60927 27-59, looked up, made by a stop codon in the I3 27-68 construct; lacks the CCC motif; also called I3_(ΔCCC); CCC_(deletion); source: E. coli BL21 (DE3), purified (Ni-NTA, TEV, heat 95 °C, SEC); not shown: His6, N-terminal, cleaved; MBP, N-terminal, cleaved) [I3_(27-59) (Δ60–68)] | – | – | – | – | – | 396 ± 11
